Measured values taken from US20150361450, “VECTOR FOR THERAPY OF MITOCHONDRIAL DISEASE” (UNIVERSITE DE STRASBOURG, published 2015).

Target: preKARS2 (precursor of human mitochondrial lysyl-tRNA synthetase) (Homo sapiens, UniProt Q15046-2 Q15046-2:1-625)
Assay: EMSA; 10 mM MgCl2, 30 C
Conditions: tags: C-terminal 6xHis, thrombin site and N-terminal 6xHis deleted, label: 5'-32P
Experimental: Purified RNA was dephosphorylated with alkaline phosphatase (Boehringer Mannheim) and labeled at the 59-end with c-32P-ATP using T4 polynucleotide kinase (Promega). The labeled RNA was denatured at 100° C. and then slowly cooled down to the room temperature. For RNA binding assays, the appropriate amount of protein and labeled RNA were mixed in […] of the buffer containing 20 mM Tris-HCl pH 7.5, 150 mM NaCl, 10 mM MgCl2, 5 mM DTT, 10% glycerol, 0.1 mg/ml BSA and incubated at 30° C. for 15 min. The mixture was separated by native 8% PAGE in […] buffer (pH 8.3) and 5% glycerol, followed by Typhoon-Trio (GE Healthcare) scanning and quantification as described in.

Chain of preKARS2 (precursor of human mitochondrial lysyl-tRNA synthetase) (Q15046 other isoform, or with tags, fused parts or gaps): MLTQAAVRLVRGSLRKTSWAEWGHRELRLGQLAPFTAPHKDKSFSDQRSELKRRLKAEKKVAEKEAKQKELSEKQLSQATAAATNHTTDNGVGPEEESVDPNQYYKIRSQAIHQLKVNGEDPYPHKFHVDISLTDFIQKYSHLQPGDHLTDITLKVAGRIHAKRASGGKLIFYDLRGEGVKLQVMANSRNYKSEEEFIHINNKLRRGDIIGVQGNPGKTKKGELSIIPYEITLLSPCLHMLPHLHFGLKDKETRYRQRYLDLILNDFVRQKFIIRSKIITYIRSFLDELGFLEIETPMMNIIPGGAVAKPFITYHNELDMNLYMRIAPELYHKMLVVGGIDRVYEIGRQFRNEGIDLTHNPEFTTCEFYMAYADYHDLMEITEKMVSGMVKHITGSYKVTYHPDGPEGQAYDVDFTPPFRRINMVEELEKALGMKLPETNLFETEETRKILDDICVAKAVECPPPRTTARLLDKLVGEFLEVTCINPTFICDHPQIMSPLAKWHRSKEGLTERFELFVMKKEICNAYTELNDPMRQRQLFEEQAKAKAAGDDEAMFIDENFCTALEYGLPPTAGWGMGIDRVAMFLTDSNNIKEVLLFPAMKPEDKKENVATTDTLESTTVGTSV

Binder	binding result (D-arm only, F-hairpin deleted)	binding result (F-hairpin only, D-arm deleted)
GCGCAAUCGGUAGCGCCUCUUUACAGUGCUUAGUUCUC (ssRNA) [HD RNA]	no binding	
GGUCUUUACAGUGCUUACUUCUCGAGCCCCCUACAGGGCUCCA (ssRNA) [HF RNA]		no binding
